# Source: patent US20250320284A1 (AC IMMUNE, published 2025)
# Residue numbers refer to the chain shown, from its start.
# T1: mouse ASC (mouse, UniProt Q9EPB4 1-193)
# T1 construct: recombinant mASC in ELISA and SPR; endogenous ASC of J774.A1 cells in Western blot and immunofluorescence; also called mASC
# T1 sequence: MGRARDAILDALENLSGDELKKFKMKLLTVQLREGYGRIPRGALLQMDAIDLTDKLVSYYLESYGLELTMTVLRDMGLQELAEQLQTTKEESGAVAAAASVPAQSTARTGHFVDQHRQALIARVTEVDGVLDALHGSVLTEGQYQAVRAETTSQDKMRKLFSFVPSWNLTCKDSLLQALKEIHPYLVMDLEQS
# T2: CARD domain of human ASC (human, UniProt Q9ULZ3 107-195)
# T2 construct: biotinylated in BLI; also called hCARD; human CARD
# T2 sequence: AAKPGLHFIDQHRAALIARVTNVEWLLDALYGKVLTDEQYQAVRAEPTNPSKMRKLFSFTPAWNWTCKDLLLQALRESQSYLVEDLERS
# B1: ACI-8016-22D3A6-AB1 (antibody, V domains shown)
# VH: QAQLQQSGTELARPGSSVKLSCKASGFTFTIYGINWVKQRTGQGLEWIGEIYPRSGNTYYDEKFKGKATLTADKSTSTAYMELRSLTSEDSAVYFCARSREWEGVFWGQGTLVTVSA
# VL: QIVLTQSPAIMSAFPGEKVTITCSATSSVSYMHWFQQKPGTSPKLWIYSTSNLASGVPARFSGSGSGTSHSLTINRMEAEDAATYYCQQRSRYPFTFGSGTKLEIK
# notes: also called 936.22D3A6; ACI-8016-22D3A6-AB1_hmG2c
# B2: ACI-8016-2617C3A8-AB1 (antibody, V domains shown)
# VH: QVQLQQSGVELARPGASVKLSCKASGSTFTSYSITWVKQRTGQGLEWIGVIYPRSDNTYYDEKFKGKATLTADKSSSTAYIELRSLTSEDSAVYFCATRDYWGQGTTLTVSS
# VL: B1 VL with F14S, T26S, H33Y, L45F, H70Y, N75S, R92N
# B3: ACI-8016-26A1G2-AB1 (antibody, V domains shown)
# VH: QVQLQQSGAELARPGASVKLSCKASGYNFTTYGINWVKQRTGQGLEWIGKIYPRSGNTHNNENFKGKATLTADTSSSTAYMDLRSLTSEDSAVYFCARSPYAFYSSSYWYFDVWGTGTTVTVSS
# VL: DIKMTQSPSSMYASLGERVTITCKASQDIKSYLSWYQQKPWKSPKTLIYYATSLADGVPSRFSGSGSGQDYSLTISSLESDDTATYYCLQHGESPFTFGSGTKLEIK
# notes: also called 936.26A1G2; ACI-8016-26A1G2-AB1_hmG2c
# B4: ACI-8016-32B6C7-AB1 (antibody, V domains shown)
# VH: QVQLQQSDAELVKPGASVKISCKISGYTFTDQTIHWMNQRPEQGLEWIGYIYPGDGSAMYNEKFRGKATLTADKSSSTAYMQLNSLTSEDSAVYFCARPLYSYASYYWFAYWGQGTLVTVSA
# VL: DIQMNQSPSSLSASLGDTITITCHASQNINVWLSWYQRKPGNIPKLLIYKSSNLHTGVPSRFSGSGSGTGFTLTISSLQPEDIATYYCQQGQSYPLTFGGGTKLEIK
# notes: also called 936.32B6C7
# B5: ACI-8016-18F4C12-AB1 (antibody, V domains shown)
# VH: EVQLQQSGAELVRPGSSVKMTCKTSGYSFSSYGMSWVKQRPGQGLEWIGYIYVGNGYTEYNEKFKGKATLTSDTSSSTVYMDFRSLTSEDSAIYFCARLNRGRALDFWGQGTTLTVSS
# VL: DIVLTQSPASLAVSLGQRATISCRASQSVSTSGHSYMHWYQQKPRQSPKLLIHFASNLESGVPARFTGSGSGTDFTLNIHPVEEEDAATYYCQHSWDLPYTFGGGTKLEIK
# notes: also called 936.18F4C12
# Biological target: T3, human ASC (apoptosis associated speck-like protein containing a caspase-recruitment domain) (human, UniProt Q9ULZ3 1-195)
# T3 construct: recombinant hASC in ELISA and SPR; endogenous ASC (cytoplasmic or specks) in Western blot and immunofluorescence; also called hASC; PYCARD
# Assay: ELISA, coated hASC;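 also: antibody binding to plate-coated recombinant human ASC, read as phosphatase substrate absorbance, EC50 from four-parameter variable-slope fit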
row,EC50 [nM],Binder
1,0.27,B1
2,0.16,B2
3,0.13,B3
4,0.14,B4
5,0.19,B5

# Biological target: T4, PYD domain of human ASC (human, UniProt Q9ULZ3 1-91, limits assumed)
# T4 construct: biotinylated in BLI; His/MBP-tagged in the alanine ELISA; also called hPYD; human PYD
# T4 sequence (Q9ULZ3 1-91 limits assumed): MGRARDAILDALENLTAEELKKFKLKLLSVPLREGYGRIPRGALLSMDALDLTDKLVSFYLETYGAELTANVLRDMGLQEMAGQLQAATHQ
# Assay: ELISA, coated hPYD;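 also: monoclonal antibody binding to plate-coated human ASC PYD measured by ELISA, with a phosphatase substrate absorbance read-out and EC50 from a variable slope curve fit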
# Protocol: (§1) Proteins and peptides were diluted in PBS. Final concentration of 3 μg/mL for human and mouse ASC proteins and 2 μg/mL for PYD and CARD domain of hASC was used to coat ELISA plates (MaxiSorp, Nunc) overnight (ON) at 4° C., 50 μL/well. After washing four times with PBS/0.05% Tween-20 and blocking for one hour at 37° C. […] After washing, plates were incubated two hours at RT with 1 mg/mL of phosphatase substrate pNPp (Sigma, cat. n° S0942). […] The absorbance signal was read at 405 nm wavelength using a plate reader (Tecan Infinity M200). EC50 was calculated using GraphPad Prism 8 and a non-constrain variable slope 4 parameter fit.
# (§2) The binding potency of a mAb to human ASC (hASC), mouse ASC (mASC), human PYD (hPYD) and human CARD (hCARD) was determined by ELISA.
EC50 [nM],binding result,Binder
0.2,–,B1
0.16,–,B2
0.12,–,B3
–,no binding,B4
–,no binding,B5

# Biological target: T1, mouse ASC
# Assay: ELISA, coated mASC
# Protocol: as §1, §2
row,EC50 [nM],Binder
1,0.27,B1
2,0.23,B2
3,0.15,B3
4,0.14,B4
5,0.2,B5

# Biological target: T2, CARD domain of human ASC
# Assay: ELISA, coated hCARD
# Protocol: as §1, §2
row,EC50 [nM],Binder
1,0.11,B4
2,0.18,B5

# Biological target: T3, human ASC (apoptosis associated …)
# Assay: cell-based or functional assay
row,"Human ASC polymerization assay, IC50 [nM]",Binder
1,4.2,B1
2,6,B2
3,4.9,B3
4,12.1,B4
5,4.7,B5

# Biological target: T1, mouse ASC
# Assay: cell-based or functional assay
row,"Mouse ASC polymerization assay, IC50 [nM]",Binder
1,30.1,B1
2,35.7,B2
3,24.8,B3

# Biological target: T3, human ASC (apoptosis associated …)
# Assay: cell-based or functional assay
# Remark: another data set of the same source
row,"IL-1β release, human monocytic cell line, IC50 [nM]",Binder
1,41.1,B1
2,20.3,B2
3,13.9,B4
4,15.9,B5

# Biological target: T1, mouse ASC
# Assay: cell-based or functional assay
# Remark: another data set of the same source
row,"% IL-1β inhibition, mouse primary microglia, 420 nM mAb [%]",Binder
1,40,B1
2,94.3,B2
3,52.1,B3
4,66.7,B4
5,82.8,B5

# Biological target: T3, human ASC (apoptosis associated …)
# Assay: SPR affinity mode, mAb captured;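 also: Single-cycle SPR kinetics with mAbs captured on goat anti-mouse antibody, double-referenced against blank flow cell and buffer cycle, fitted by a 1:1 kinetic model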
# Protocol: (§3) ASC mAb Capture and Binding Kinetics: Each cycle started with non-covalent capture of ASC mAbs (listed in Table 1) which were diluted in running buffer to a final concentration of 2 μg/mL and injected for 90 sec with a flow rate of 10 μL/min. Eight mAbs were captured on flow-cell 2 at the same time, leaving flow-cell 1 as a blank control. Capture levels were evaluated following a 120 sec stabilization period after each mAb injection and ranged from 300 to 460 RU (see Table 3).
# (§4) Binding affinity of mAbs for hASC and mASC was assessed using a single-cycle kinetics method. Prior to analysis, two startup cycles were run. […] Regeneration of the goat anti-mouse antibody was achieved by injection of 10 mM glycine-HCl pH 1.7 at a flow rate of 10 μL/min for 120 sec, followed by a stabilization period of 300 sec. For blank injections running buffer was injected under the same conditions. Results obtained from single-cycle kinetics were double-referenced using the blank flow-cell 1 and a buffer cycle and evaluated using the Biacore 8K evaluation software with 1:1 kinetic fit model (global Rmax). The following kinetic parameters were obtained: Association rate constant (ka), dissociation rate constant (kd), affinity constant (KD) and saturation response (Rmax). Fitting was rejected if less than three curves could be fit.
# (§5) Obtained sensorgrams were fit with a 1:1 kinetic fit model. mAbs with a signal below 20 RU at the highest concentration were considered as “low binders”. Responses with no concentration dependence or with signal below 5 RU at the highest concentration were considered as “non-binders”.
Kd [nM],koff [s⁻¹],kon [M⁻¹ s⁻¹],Binder
0.38,0.000264,690000,B1
0.15,0.000118,810000,B2
1.87,8.05e-05,42000,B3
1.06,0.000201,192000,B4
0.7,0.000442,621000,B5

# Biological target: T1, mouse ASC
# Assay: SPR affinity mode, mAb captured;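 also: Single-cycle SPR kinetics with mAbs captured on goat anti-mouse antibody, double-referenced against blank flow cell and buffer cycle, fitted by a 1:1 kinetic model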
# Protocol: as §3, §4, §5
Kd [nM],koff [s⁻¹],kon [M⁻¹ s⁻¹],Binder
1.16,0.00069,598000,B1
0.15,0.000162,1.09e+06,B2
3.81,0.000101,27600,B3

# Biological target: T4, PYD domain of human ASC
# Assay: BLI binning on PYD, competitor 22D3A6-AB1
# Protocol: (§6) Competitive epitope binning of ASC mAbs was performed on OctetQKe (ForteBio) in “in-Tandem” mode. […] After each competition cycle, biosensors were regenerated by three consecutive incubations of 5 s in 0.1 M Glycine pH 1.5 followed by a neutralization step of 30 s in PBS, 0.1% BSA, 0.02% Tween.
# (§7) All antibodies were tested in a matrix fashion and in both assay orientations. For each competition cycle, a blank run was performed using 1×PBS, 0.1% BSA, 0.02% Tween to determine baseline and maximum binding level. […] Competing mAb responses were normalized relative to the competing antibody alone binding response. […] A bin was defined as a group of antibodies competing in both orientations.
# (§8) Antibodies at saturating concentration are represented as rows and competing antibodies as columns.
row,normalized binding response [%],Binder
1,2,B1
2,1,B2
3,23,B3

# Biological target: T4, PYD domain of human ASC
# Assay: BLI binning on PYD, competitor 23E5F7-AB2
# Protocol: as §6, §7, §8
row,normalized binding response [%],Binder
1,1,B1
2,1,B2
3,18,B3

# Biological target: T4, PYD domain of human ASC
# Assay: BLI binning on PYD, competitor 26A1G2-AB1
# Protocol: (§9) To determine the epitope coverage and diversity of the antibody panel, an epitope binning experiment was performed. Competitive epitope binning of ASC mAbs was performed on OctetQKe (ForteBio) in “in-Tandem” mode. […] After each competition cycle, biosensors were regenerated by three consecutive incubations of 5 s in 0.1 M Glycine pH 1.5 followed by a neutralization step of 30 s in PBS, 0.1% BSA, 0.02% Tween.
# as §7, §8
row,normalized binding response [%],Binder
1,0,B1
2,2,B2
3,3,B3

# Biological target: T4, PYD domain of human ASC
# Assay: BLI binning on PYD, competitor 31F10C5-AB1
# Protocol: as §6, §7
row,normalized binding response [%],Binder
1,1,B1
2,2,B2
3,19,B3

# Biological target: T4, PYD domain of human ASC
# Assay: BLI binning on PYD, competitor 401H9B7-AB1
# Protocol: as §6, §7, §8
row,normalized binding response [%],Binder
1,73,B1
2,75,B2
3,63,B3

# Biological target: T4, PYD domain of human ASC
# Assay: BLI binning on PYD, competitor 416E6G4-AB1
# Protocol: as §6, §7, §8
row,normalized binding response [%],Binder
1,2,B1
2,4,B2
3,14,B3

# Biological target: T2, CARD domain of human ASC
# Assay: BLI binning on CARD, competitor 32B6C7-Ab1
# Protocol: as §9, §7, §8
row,normalized binding response [%],Binder
1,0,B4
2,78,B5

# Biological target: T4, PYD domain of human ASC
# Assay: BLI binning on PYD, competitor 2610H7D3-AB1
# Protocol: as §9, §7, §8
row,normalized binding response [%],Binder
1,3,B1
2,0,B2
3,22,B3

# Biological target: T4, PYD domain of human ASC
# Assay: BLI binning on PYD, competitor 2617C3A8-AB1
# Protocol: as §9, §7, §8
row,normalized binding response [%],Binder
1,2,B1
2,2,B2
3,23,B3

# Biological target: T4, PYD domain of human ASC
# Assay: BLI binning on PYD, competitor 2626B9D3-AB1
# Protocol: as §6, §7, §8
row,normalized binding response [%],Binder
1,74,B1
2,88,B2
3,33,B3

# Biological target: T2, CARD domain of human ASC
# Assay: BLI binning on CARD, competitor 18F4C12-Ab1
# Protocol: as §6, §7
row,normalized binding response [%],Binder
1,97,B4
2,0,B5

# Biological target: T2, CARD domain of human ASC
# Assay: BLI binning on CARD, competitor 2504F3D9-Ab1
# Protocol: as §6, §7
row,normalized binding response [%],Binder
1,-3,B4
2,33,B5

# Biological target: T2, CARD domain of human ASC
# Assay: BLI binning on CARD, competitor 2609F4A9-Ab1
# Protocol: as §6, §7
row,normalized binding response [%],Binder
1,-3,B4
2,68,B5

# Biological target: T2, CARD domain of human ASC
# Assay: BLI binning on CARD, competitor 2629E8D1-Ab1
# Protocol: as §6, §7
row,normalized binding response [%],Binder
1,-2,B4
2,69,B5

# Biological target: T2, CARD domain of human ASC
# Assay: BLI binning on CARD, competitor 2622E12F11-Ab1
# Protocol: as §6, §7
row,normalized binding response [%],Binder
1,106,B4
2,-3,B5

# Biological target: T1, mouse ASC
# Assay: SPR affinity mode, steady-state fit, apparent KD
# Protocol: as §3, §4
row,Kd [nM],Binder
1,36.9,B4
2,54.5,B5

# Biological target: T2, CARD domain of human ASC
# Assay: sandwich ELISA on MBP-tagged protein captured by anti-MBP antibody, signal as % of hPYD-WT
row,binding result,Binder
1,no binding,B1

# Biological target: T2, CARD domain of human ASC
# Assay: as above
# Remark: another data set of the same source
row,binding result,Binder
1,no binding,B2
2,no binding,B3
